To fix the notation:
B1: His6-ARS014-TolA-AVI (designed binder)
chain: His6-LAEAKVLANRELDKYGVSDVYKNLINYAWLVMWVPIDAILALLP-{TolA-AVI}
modifications: also: biotin on the AviTag (in vivo biotinylated)
notes: ABD-derived variant selected by ribosome display; positions 35-36 are deleted; source: E. coli BL21 (DE3) BirA, purified (Ni-NTA); not shown: His6, N-terminal, kept; TolA spacer protein (305 residues), C-terminal, kept
B2: His6-ARS019-TolA-AVI (designed binder)
chain: His6-LAEAKVLANRELDKYGVSDMYKNVINIAWWVSIVKYPIDCILALLP
modifications: not fully specified (C-terminus); also: His6-TolA-AviTag fusion, not in given chain, biotin on the AviTag (in vivo biotinylated)
notes: ABD-derived variant selected by ribosome display; source: E. coli BL21 (DE3) BirA, purified (Ni-NTA); not shown: His6, N-terminal, kept; TolA spacer protein (305 residues), C-terminal, kept
B3: His6-ARS004-TolA-AVI (designed binder)
chain: His6-LAEAKVLANRELDKYGVSDVYKLINYACPVTWVKWVIDPILAMLP-{TolA-AVI}
modifications: also: biotin on the AviTag (in vivo biotinylated)
notes: ABD-derived variant selected by ribosome display; position 23 is deleted; source: E. coli BL21 (DE3) BirA, purified (Ni-NTA); not shown: His6, N-terminal, kept; TolA spacer protein (305 residues), C-terminal, kept
B4: His6-ARS043-TolA-AVI (designed binder)
chain: His6-LAEAKVLANRELDKYGVSDLYKNMINMALWVTGVKWLIDPILATLP
modifications: not fully specified (C-terminus); also: His6-TolA-AviTag fusion, not in given chain, biotin on the AviTag (in vivo biotinylated)
notes: as for B2
B5: His6-ARS012-TolA-AVI (designed binder)
chain: His6-LAEAKVLANRELDKYGVSDVYKLINMALYVTGVKPWIDVILAVLP-{TolA-AVI}
modifications: also: biotin on the AviTag (in vivo biotinylated)
notes: as for B3

Ends that are not written are not given here. TolA = 305-residue helical TolA spacer protein; AVI = AviTag

For this test, the target named is T1, human IL-17RA on the cell surface (human (endogenous in THP-1 and HaCaT), UniProt Q96F46 33-866).
T1 construct: human IL-17 receptor A, endogenous on the surface of human cell lines; Expression on THP-1 was confirmed with an anti-IL-17RA antibody; also called cell-surface IL-17RA; IL-17RA-expressing THP-1 cells; source: endogenous, on THP-1 cells; endogenous, on HaCaT cells
Description: LigandTracer Green Line (real-time binding to cells); adherent HaCaT cells on a dish; biotinylated His6-ARS-TolA-AVI added stepwise (3, 30, 90 nM by the results), then dissociation in fresh medium or PBS (ARS043); one-to-one model, TraceDrawer. The conditions noted are these: one partner purified.
As to B1, the Kd (commonly the free concentration of one partner at which half of the binding sites on the other are occupied at equilibrium, for simple one-to-one binding) was determined as 2 nM.
B2: the Kd amounted to 0.7 nM.
B3: the affinity, expressed as Kd, was 1.2 nM.
The figure for B4 is 32 nM.
Next, B5: 35 nM.

Source of the values: PMC6213189, “ABD-Derived Protein Blockers of Human IL-17 Receptor A as Non-IgG Alternatives for Modulation of IL-17-Dependent Pro-Inflammatory Axis” (International Journal of Molecular Sciences, 2018).
